Substitutions are numbered along the chain they refer to.
B1: SRP1848-F04 (antibody, V domains shown)
VH: EVQLVESGGGLVQPGGSLRLSCAASGFNISNYSIHWVRQAPGKGLEWVGEIYPIDGITDYADSVKGRFTISADTSKNTAYLQMNSLRAEDTAVYYCARGSWFWRSGYGYYLDYWGQGTLVTVSS
VL: not shown
notes: VH/VL only; Fc-bearing IgG format with trastuzumab LC, HIS/FLAG-tagged, cell-free expressed; constant regions not tied; also called Antibody 39
B2: SRP1848-A10 (antibody, V domains shown)
VH: B1 VH with S30R, N31K, V37A, E50D, Y52F, G56D, F102S, R104P, Y107H, G108S
VL: not shown
notes: VH/VL only; Fc-bearing IgG format with trastuzumab LC, HIS/FLAG-tagged, cell-free expressed; constant regions not tied; also called Antibody 8
B3: SRP1848-B05 (antibody, V domains shown)
VH: B1 VH with S33Y, E50G, Y52S, I57Y, V64M, N84S, R104Q
VL: not shown
notes: VH/VL only; Fc-bearing IgG format with trastuzumab LC, HIS/FLAG-tagged, cell-free expressed; constant regions not tied; also called Antibody 12
B4: SRP1848-D07 (antibody, V domains shown)
VH: B1 VH with N31K, S33Y, E50G, Y52S, I54N, I57Y, T69A, S100F, F102A
VL: not shown
notes: VH/VL only; Fc-bearing IgG format with trastuzumab LC, HIS/FLAG-tagged, cell-free expressed; constant regions not tied; also called Antibody 28
B5: SRP1848-A04 (antibody, V domains shown)
VH: B1 VH with S30D, N31Q, Y32S, E50V, I54V, I57T, S100A, F102S, L111I
VL: not shown
notes: VH/VL only; Fc-bearing IgG format with trastuzumab LC, HIS/FLAG-tagged, cell-free expressed; constant regions not tied; also called Antibody 3
B6: SRP1848-C07 (antibody, V domains shown)
VH: B1 VH with S30R, N31K, E50D, Y52F, V64M, F102S, R104P, S105A, L111Q
VL: not shown
notes: VH/VL only; Fc-bearing IgG format with trastuzumab LC, HIS/FLAG-tagged, cell-free expressed; constant regions not tied; also called Antibody 22
B7: SRP1848-A09 (antibody, V domains shown)
VH: B1 VH with S30R, N31K, Y32Q, E50S, Y52F, I54N, I57T, M83V, Y110F, D112E
VL: not shown
notes: VH/VL only; Fc-bearing IgG format with trastuzumab LC, HIS/FLAG-tagged, cell-free expressed; constant regions not tied; also called Antibody 7
B8: SRP1848-C01 (antibody, V domains shown)
VH: EVQLVESGGGLVQPGGSLRLSCAASGFNIGNSYIHWVRQAPGKGLEWVGGVTPNDGYTDYADSVKGRFTISADTSKNTTYLQMNSLRAEDTAVYYCARGSWFWRAGYGYYLDYWGQGALVTVSS
VL: not shown
notes: VH/VL only; Fc-bearing IgG format with trastuzumab LC, HIS/FLAG-tagged, cell-free expressed; constant regions not tied; also called Antibody 18
B9: SRP1848-B01 (antibody, V domains shown)
VH: B1 VH with S30R, I54V, S100F, F102S, R104P, G108S, Y110F
VL: not shown
notes: VH/VL only; Fc-bearing IgG format with trastuzumab LC, HIS/FLAG-tagged, cell-free expressed; constant regions not tied; also called Antibody 9
B10: SRP1848-E01 (antibody, V domains shown)
VH: B8 VH with G30T, S32K, V51I, N54F, Y57F, T79A, F102S, R104P, L111Q, A118T
VL: not shown
notes: VH/VL only; Fc-bearing IgG format with trastuzumab LC, HIS/FLAG-tagged, cell-free expressed; constant regions not tied; also called Antibody 31
B11: SRP1848-B04 (antibody, V domains shown)
VH: B1 VH with G26S, Y32H, I54V, S100R, W101Y, F102S, S105A, G108S
VL: not shown
notes: VH/VL only; Fc-bearing IgG format with trastuzumab LC, HIS/FLAG-tagged, cell-free expressed; constant regions not tied; also called Antibody 11
B12: SRP1848-E05 (antibody, V domains shown)
VH: B8 VH with L20V, N31V, S32Y, V51I, T79A, S100F, F102A, A105S, A118T
VL: not shown
notes: VH/VL only; Fc-bearing IgG format with trastuzumab LC, HIS/FLAG-tagged, cell-free expressed; constant regions not tied; also called Antibody 34
B13: SRP1848-B07 (antibody, V domains shown)
VH: EVQLVESGGGLVQPGGSLRLSCAASGFNISRFYIHWVRQAPGKGLEWVGGISPYDGFTDYADSVKGRFTISADTSKNTAYLQMNSLRAEDTAVYYCARGSWSWPAGYGYYQDYWGQGTLVTVSS
VL: not shown
notes: VH/VL only; Fc-bearing IgG format with trastuzumab LC, HIS/FLAG-tagged, cell-free expressed; constant regions not tied; also called Antibody 14
B14: SRP1848-D09 (antibody, V domains shown)
VH: B1 VH with S33Y, E50G, Y52S, I54N, I57Y, F102S, S105H
VL: not shown
notes: VH/VL only; Fc-bearing IgG format with trastuzumab LC, HIS/FLAG-tagged, cell-free expressed; constant regions not tied; also called Antibody 29
B15: SRP1848-A07 (antibody, V domains shown)
VH: B1 VH with S30G, N31Y, Y32H, Y52F, I54V, I57T, Q82H, S100F, F102A
VL: not shown
notes: VH/VL only; Fc-bearing IgG format with trastuzumab LC, HIS/FLAG-tagged, cell-free expressed; constant regions not tied; also called Antibody 5
B16: SRP1848-F06 (antibody, V domains shown)
VH: B1 VH with N31L, Y32S, S33Y, E50G, Y52S, I57N, S100F, F102A
VL: not shown
notes: VH/VL only; Fc-bearing IgG format with trastuzumab LC, HIS/FLAG-tagged, cell-free expressed; constant regions not tied; also called Antibody 41

molecular target: T1, Human folate receptor alpha (hFOLR1) (human, UniProt P15328 25-234); assay: FACS, CHO-hFOLR1 cells
T1 construct: Stably expressed on CHO cells (CHO-hFOLR1) for flow cytometry; endogenous on FOLR1-positive KB and Igrov1 cells in the killing assay; also called human FOLR1; FolRα
Experimental: CHO cells were transfected to stably express human (CHO-hFOLR1), cynomolgus (CHO-cFOLR1), or mouse (CHO-mFOLR1) target molecule FOLR1 on the cell surface. Parental CHO cells were used as a negative control to determine background binding levels. Parental CHO and stably transfected CHO-hFOLR1, CHO-cFOLR1, and CHO-mFOLR1 cells were cultured in Ham's F-12: high glucose DMEM (50:50) (Corning, Cellgro-Mediatech) supplemented with 10% heat-inactivated fetal bovine serum (Corning, Cellgro-Mediatech), 1% Penicillin/Streptomycin (Corning, Cellgro-Mediatech) and 2 mmol/L-glutamax (Life Technology).
A mixture of fluoresecent-labeled parental CHO cells and unlabeled CHO-hFOLRlcells were prepared as follows. Parental CHO cells were washed twice in PBS and incubated in PBS containing with 1 nM CellTrace™ Oregon Green488® (Life Technologies) at 37° C. for 30 minutes. Labeled parental CHO cells were then washed 2× with Ham's F-12 media and 2× with FACS buffer (PBS with 1% bovine serum albumin). Unlabeled CHO-hFOLR1 cells were similarly washed and prepared. Labeled parental CHO and unlabeled CHO-hFOLR1 cells were combined at 1:1 ratio and seeded at 50 μL per well (200,000 cells per well) in 96 well polypropylene plates. Cells were mixed with 50 μL of test antibodies (i.e., anti-FOLR1 variants) serially diluted in FACS buffer and incubated on ice for 60 mins. Cells were washed with FACS buffer and incubated on ice for 60 mins with 100 μL FACS buffer containing 2.5 μg/mL R-Phycoerythrin-conjugated goat anti-Human IgG (Jackson ImmunoResearch Laboratories, West Grove, Pa.). Cells were washed twice with FACS buffer, fixed in 2% paraformaldehyde in PBS (Santa Cruz Biotechnology; Dallas, Tex.) for 10 mins on ice in the dark, and analyzed using the BD LSR II Flow Cytometer (BD Biosciences; San Jose, Calif.). Data were analyzed using FlowJo® software (FlowJo, LLC; Ashland, Oreg.) to determine mean fluorescence intensities. Binding constants were calculated using the statistical software, GraphPad Prism (GraphPad Software; La Jolla, Calif.) using the nonlinear regression equation, one site-specific binding with Hill slope. Secondary antibody alone was used as a control, in addition to measuring non-specific antibody binding to CHO parental cells.

T1 sequence (P15328 25-234 limits assumed): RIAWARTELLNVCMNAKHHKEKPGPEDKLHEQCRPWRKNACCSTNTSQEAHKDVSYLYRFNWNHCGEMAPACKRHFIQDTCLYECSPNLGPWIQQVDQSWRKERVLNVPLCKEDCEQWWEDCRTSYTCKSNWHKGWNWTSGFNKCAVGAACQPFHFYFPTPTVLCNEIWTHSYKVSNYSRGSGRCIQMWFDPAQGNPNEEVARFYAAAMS

Row | Bmax [MFI] | Binder
1 | 26900 | B1
2 | 27100 | B2
3 | 24500 | B3
4 | 25700 | B4
5 | 26800 | B5
6 | 28800 | B6
7 | 28900 | B7
8 | 28500 | B8
9 | 26600 | B9
10 | 26400 | B10
11 | 27800 | B11
12 | 27300 | B12
13 | 25600 | B13
14 | 25000 | B14
15 | 29200 | B15
16 | 25600 | B16

molecular target: T2, Cynomolgus folate receptor alpha (cynomolgus monkey, UniProt P15328 25-234 (human entry)); assay: FACS, CHO-cFOLR1 cells
T2 construct: Stably expressed on CHO cells (CHO-cFOLR1); also called cynomolgus FOLR1; CHO-cFOLR1
T2 sequence (P15328 other isoform, or with tags, fused parts or gaps limits assumed): as the sequence (P15328 25-234 limits assumed) above, with I2T, W4R, R37K, Q117R, A146P, H171Y counted along it

Row | Bmax [MFI] | Binder
17 | 26400 | B1
18 | 14800 | B2
19 | 21900 | B3
20 | 24300 | B4
21 | 23100 | B5
22 | 18100 | B6
23 | 20200 | B7
24 | 25900 | B8
25 | 23900 | B9
26 | 22400 | B10
27 | 27800 | B11
28 | 28200 | B12
29 | 25500 | B13
30 | 21300 | B14
31 | 23600 | B15
32 | 26500 | B16

molecular target: T3, Murine folate receptor alpha (mouse, UniProt P35846 25-232); assay: FACS, CHO-mFOLR1 cells
T3 construct: Stably expressed on CHO cells (CHO-mFOLR1); also called mouse FOLR1; CHO-mFOLR1
T3 sequence (P35846 25-232 limits assumed): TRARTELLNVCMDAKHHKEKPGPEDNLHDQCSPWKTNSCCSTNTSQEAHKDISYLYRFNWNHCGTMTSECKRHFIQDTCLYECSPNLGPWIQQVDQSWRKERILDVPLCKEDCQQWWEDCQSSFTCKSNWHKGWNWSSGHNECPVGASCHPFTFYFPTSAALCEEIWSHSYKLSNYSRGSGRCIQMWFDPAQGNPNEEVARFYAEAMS

Row | Bmax [MFI] | Binder
33 | 2740 | B1
34 | 10200 | B2
35 | 3890 | B5
36 | 3170 | B6
37 | 7990 | B7
38 | 1370 | B8
39 | 3400 | B9
40 | 2190 | B11
41 | 9650 | B15
